Data on one molecule can be found in patent US7405061.

This assay addresses antigen PIPA (human). Put plainly: cell-based or functional assay.

B1: monoclonal antibody PIP (antibody, V domains shown)
V domain 1: DVQLQESGPDLVKPSQSVSLTCTVTGYSITSGYGWHWIRQFPGNKLEWMGCIHYSGSTNYNPSLKSRISVTRDTSKNQFFLQLNSVTTEDTATYYCARREYGNYAMDYWGQGTSVTVSS
V domain 2: B1 V domain 1
B1 registered a decrease in cell proliferation of OV90 cells (MTT) with PIP at 10 ug/ml and MAb-ZAP saporin-linked secondary antibody of 50 percent.
